Where two headings read alike, the source gives them in different places.
Legend:
[1] = target: LRPL-1 (cDNA lacking the signal peptide) (C. elegans); experiment: SPR; LRPL-1 biotinylated and captured on a Streptavidin chip, Biacore X100; DMA-1 ectodomain as analyte at 78 nM to 10 µM; HBS (10 mM HEPES pH 7.2, 150 mM NaCl) with 0.05% Tween-20 and 0.1% BSA; kinetic fit and steady-state fit (Langmuir 1:1)
[2] = target: LRPL-1 (cDNA lacking the signal peptide) (C. elegans); experiment: as above; remark: listed apart in the source

Kd [1]: 6.9 µM
Kd [2]: 3.9 µM
koff [2]: 0.018 s⁻¹
kon [2]: 4600 M⁻¹ s⁻¹
Substance: DMA-1 ectodomain (amino acids Leu20 to Leu507) (domain or fragment)
